Values belong to the binder of their own block, whether it stands above or below them.
How the values were obtained:
[1] = biological target: T1, human IL-23 (human, UniProt P29460 23-328; Q9NPF7 20-189); test: SPR, purified scFv captured via FLAG
T1 construct: Recombinant (Ebioscience); HIS-tagged in flow cytometry, biotinylated in some assays; also called hIL-23; rhIL-23
T1 sequence 1: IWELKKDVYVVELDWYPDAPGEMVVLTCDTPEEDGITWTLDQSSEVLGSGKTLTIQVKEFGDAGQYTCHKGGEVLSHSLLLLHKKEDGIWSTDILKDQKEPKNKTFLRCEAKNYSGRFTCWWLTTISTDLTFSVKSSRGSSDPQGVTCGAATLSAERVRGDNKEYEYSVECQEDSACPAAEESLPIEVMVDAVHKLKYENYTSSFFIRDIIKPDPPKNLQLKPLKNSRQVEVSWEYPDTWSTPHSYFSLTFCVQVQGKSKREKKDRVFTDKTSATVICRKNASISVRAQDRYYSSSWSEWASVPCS
T1 sequence 2: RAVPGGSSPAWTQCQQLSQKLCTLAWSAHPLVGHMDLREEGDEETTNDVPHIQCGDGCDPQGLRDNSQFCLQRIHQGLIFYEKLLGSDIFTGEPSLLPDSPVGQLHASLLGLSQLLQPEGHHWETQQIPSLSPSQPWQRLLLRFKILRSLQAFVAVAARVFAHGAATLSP
Method: (§1) A number of the scFv variants presented in TABLE 4 were selected for full characterization of binding kinetics, encompassing a broad range of mutation profiles and binding affinities. Large-scale protein expressions were carried out for each scFv. The expressed scFvs were purified as monomeric proteins and tested for binding against IL-12 and IL-23 by SPR (TABLE 5).
(§2) Purified scFvs were subjected to full kinetic characterization using a BIAcore T100 biosensor (GE Healthcare). Approximately 10,000 RU of the proprietry FLAG-specific capture molecule was immobilized on a CM5 Series S Sensor chip, using standard amine coupling chemistry in flow cells (FC) 1 and FC2 (or alternatively FC3 and FC4) of the BIAcore T100 Biosensor. The running buffer used was HBS-EP+ (BIAcore) and interactions measured at 30° C. or 35° C. to promote differentiation of scFvs with very similiar kd values. Peak purified FLAG-tagged scFvs (prepared as described in the previous paragraph) were diluted to 10 nM in running buffer, and captured on FC2 at a flow rate of 10 μl/min in order to capture 50 RU of scFv (typically 60 sec was sufficient to capture this level of tagged scFv). After an appropriate stabilization period, the target, IL-12 or IL-23, were passed over FC1 and FC2 at a flow rate of 60 μl/min at concentrations ranging from 81 nM to 0.13 nM (using a five-fold dilution of IL-12) and 81 nM to 1 nM (using a three-fold dilution of IL-23). The contact time for association was 180 sec and dissociation measured for 10 mins for the highest concentration and 300 sec for all other concentrations in the series. The sensorgram data from FC2 was subtracted from FC1 and a buffer only control. The curves were fitted using a 1:1 Langmuir equation to generate the kₐ, kd and KD values.

[2] = biological target: T2, human IL-12 (human, UniProt P29460 23-328; P29459 23-219); test: SPR, purified scFv captured via FLAG
T2 construct: Recombinant (Peprotech); FLAG-tagged IL-12 in the flow cytometry assays, biotinylated in the IL-12Rβ2 assay; also called hIL-12
T2 sequence 1: T1 sequence 1
T2 sequence 2: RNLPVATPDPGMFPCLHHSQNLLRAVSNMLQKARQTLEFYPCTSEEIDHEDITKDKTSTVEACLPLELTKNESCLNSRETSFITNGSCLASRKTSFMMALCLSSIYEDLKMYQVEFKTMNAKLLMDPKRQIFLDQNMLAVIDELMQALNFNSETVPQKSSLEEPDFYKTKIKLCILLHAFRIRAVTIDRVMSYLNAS
Method: as §1, §2

[3] = biological target: T1, human IL-23; test: SPR screen, crude scFv captured via FLAG
Method: Approximately 6500 individual scFvs recovered from the ribosome display reactions were expressed and screened for binding against IL-23 using a high-throughout SPR assay. The variants were ranked according to the kd and the best variants were sequenced at the nucleic acid level.
High-throughput SPR screening was conducted using a BIAcore A100 biosensor (GE Healthcare). Approximately 10 000 RU of the proprietary FLAG-specific capture molecule was immobilized on a CM5 Series S Sensor chip, using standard amine coupling chemistry on Spots 1 & 5 (outer spots) and 3,000RU to Spots 2 & 4 (inner spots) in each of the four flow cells of the BIAcore A100 Biosensor. The running buffer used was HBS-EP+ (BIAcore) and all interactions measured at 25° C. Crude periplasmic preparations of FLAG-tagged scFvs (prepared as described in the previous paragraph), were diluted two-fold in running buffer before capturing at a flow rate of 5u1/min for 60 sec. Approx. 100RU (on outer spots) and 50RU (on inner spots) of tagged scFv was captured. Following a 2 min stabilization period, IL-23 was passed over all spots of all four flow cells simultaneously at a flow rate of 30u1/min for 120 sec and dissociation monitored for 200 sec. Generated sensorgrams were referenced against the unmodified spot 3 of each flow cell, and fitted using a 1:1 Langmuir equation with R1 set to local to account for varying ligand densities to generate the kₐ, kd and KD values.

[4] = biological target: T1, human IL-23; test: SPR, purified scFv captured via FLAG; LOD estimated 1 × 10^-5 s^-1
Method: as §1, §2

[5] = biological target: T2, human IL-12; test: SPR, purified scFv
[6] = biological target: T1, human IL-23; test: ELISA, SPR
[7] = biological target: T2, human IL-12; test: ELISA, SPR

kon [1]: 350000 M⁻¹ s⁻¹
Kd [2]: 46 pM
koff [2]: 0.0001 s⁻¹
kon [2]: 2.2e+06 M⁻¹ s⁻¹
koff [3]: 0.00025 s⁻¹
koff [4]: < 1e-05 s⁻¹
fold affinity improvement compared to parental scFv-80 [5]: 5 fold
B1: scFv AW-F2 (scFv)
scFv: QVQLVQSGAEVKKPGASVKVSCKASGYTFTDYYLHWVRQAPGQGLEWMGWIDPENGDTESAPKFQGRVTMTTDTSTSTAYMELRSLRSDDTAVYYCNANKELRYFDVWGQGTMVTVSSGGGGSGGGGSGGGGSEIVMTQSPATLSVSPGERATLSCRASQSISINLHWYQQKPGQAPRLLIYFASQSISGIPARFSGSGSGTEFTLTISSLQSEDFAVYYCQQSNSFPLTFGGGTKVEIKR
notes: scFv-80 variant: VH Y59S; not shown: proprietary C-terminal FLAG tag

binding result [6]: binds
binding result [7]: binds
B2: Antibody 50 (antibody, human IgG1, kappa, V domains shown)
VH: EVQLQQSGADLVRSGASIKLSCTASGFNIKDYYLHWVKQRPEQGLEWIGWIDPENGDTEYAPKFQGKATMTADTSSNTAYLQLSSLTSEDTAVYYCNANKELRYFDVWGAGTTVTVSS
VL: DIVLTQSPATLSVTPGDSVSLSCRASQSISINLHWYQQKSHESPRLLIKFASQSISGIPSRFSGYGSGTDFTLSINSVETEDFGRYFCQQSNSFPLTFGAGTKLELKR
notes: Optimized chimeric antibody (W94F, M34L, C95N)

Reference: patent US20110262445A1 (CEPHALON AUSTRALIA, published 2011)
